Numbering of substitutions follows the chain as printed.
Assays:
[1] = target: T1, VEGFC (UniProt P49767 103-227, limits assumed); assay: binding ELISA on coated VEGFC (Example 12.8), OD 450 nm
T1 sequence (looked up): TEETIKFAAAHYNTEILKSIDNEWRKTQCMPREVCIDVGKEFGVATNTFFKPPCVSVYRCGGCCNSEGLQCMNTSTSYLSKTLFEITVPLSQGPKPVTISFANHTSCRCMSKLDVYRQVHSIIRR
Protocol: (§1) Binding to VEGFB, VEGFC, VEGFD and PIGF is assessed via a solid phase binding ELISA. […] Wells are blocked with a casein solution (1% in PBS). […] As positive controls serial dilutions of the appropriate receptors are taken along and detected with horseradish peroxidase (HRP)-conjugated goat anti-human IgG, Fc specific antibody (Jackson Immuno Research Laboratories Inc., West Grove, Pa., USA) and a subsequent enzymatic reaction in the presence of the substrate TMB (3,3′,5,5′-tetramentylbenzidine) (Pierce, Rockford, Ill., USA).

[2] = target: T2, VEGFD (UniProt O43915 93-201, limits assumed); assay: solid phase binding ELISA on coated VEGF D (Example 12.8)
T2 sequence (looked up): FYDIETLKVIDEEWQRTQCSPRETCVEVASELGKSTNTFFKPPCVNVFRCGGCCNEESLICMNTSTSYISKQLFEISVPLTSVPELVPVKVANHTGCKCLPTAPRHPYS
Protocol: as §1

[3] = target: T3, PIGF (UniProt P49763-2 21-149, limits assumed); assay: solid phase binding ELISA on coated PIGF (Example 12.8)
T3 construct: also called placenta growth factor
T3 sequence (looked up): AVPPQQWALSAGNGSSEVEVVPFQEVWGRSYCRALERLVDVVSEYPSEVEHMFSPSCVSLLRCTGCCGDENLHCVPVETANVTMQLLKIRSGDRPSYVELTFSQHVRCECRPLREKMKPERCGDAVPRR
Protocol: as §1

[4] = target: T4, VEGFB (UniProt P49765-2 22-188, limits assumed); assay: binding ELISA on coated VEGFB (Example 12.8), OD 450 nm
T4 sequence (looked up): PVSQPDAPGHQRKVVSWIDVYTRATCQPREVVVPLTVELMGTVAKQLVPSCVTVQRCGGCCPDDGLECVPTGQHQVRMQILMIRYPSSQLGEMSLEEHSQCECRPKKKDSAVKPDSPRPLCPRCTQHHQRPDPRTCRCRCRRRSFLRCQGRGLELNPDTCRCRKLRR
Protocol: as §1

[5] = target: VEGF (used to stimulate HUVEC cells) (UniProt P15692-4 27-191, limits assumed); assay: cell-based or functional assay
VEGF (used to stimulate HUVEC cells), sequence (P15692 other isoform, or with tags, fused parts or gaps limits assumed): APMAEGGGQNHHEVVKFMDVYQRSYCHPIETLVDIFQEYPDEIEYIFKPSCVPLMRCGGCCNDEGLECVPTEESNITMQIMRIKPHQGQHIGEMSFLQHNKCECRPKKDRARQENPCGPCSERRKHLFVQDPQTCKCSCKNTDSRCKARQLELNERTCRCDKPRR

[6] = target: T5, human DLL4, full length, overexpressed on cells (human, UniProt Q9NR61 27-685); assay: FMAT, hNotch1-Fc on CHO-hDLL4, -HSA
T5 construct: CHO cells in FMAT, HEK293 cells in the reporter assay; also called hDLL4; CHO-hDLL4

[7] = target: T6, recombinant human VEGF165 (human, UniProt P15692-4 27-191, biotinylated in the competition assays); assay: AlphaScreen, hVEGF165/hVEGFR2-Fc competition, +5 uM HSA
T6 construct: Bought protein; also called hVEGF165; rhVEGF165
T6 sequence (P15692 other isoform, or with tags, fused parts or gaps): as the sequence (P15692 other isoform, or with tags, fused parts or gaps limits assumed) above
Protocol: These 2 competition assays are also performed after preincubation of the VHHs with 5 μM human serum albumin.

[8] = target: T7, mouse DLL4, full length, overexpressed on CHO cells (mouse, UniProt Q9JI71 27-686); assay: FMAT, hNotch1-Fc on CHO-mDLL4, -HSA
T7 construct: whole, on cells; also called mDLL4; CHO-mDLL4
T7 sequence (Q9JI71 27-686): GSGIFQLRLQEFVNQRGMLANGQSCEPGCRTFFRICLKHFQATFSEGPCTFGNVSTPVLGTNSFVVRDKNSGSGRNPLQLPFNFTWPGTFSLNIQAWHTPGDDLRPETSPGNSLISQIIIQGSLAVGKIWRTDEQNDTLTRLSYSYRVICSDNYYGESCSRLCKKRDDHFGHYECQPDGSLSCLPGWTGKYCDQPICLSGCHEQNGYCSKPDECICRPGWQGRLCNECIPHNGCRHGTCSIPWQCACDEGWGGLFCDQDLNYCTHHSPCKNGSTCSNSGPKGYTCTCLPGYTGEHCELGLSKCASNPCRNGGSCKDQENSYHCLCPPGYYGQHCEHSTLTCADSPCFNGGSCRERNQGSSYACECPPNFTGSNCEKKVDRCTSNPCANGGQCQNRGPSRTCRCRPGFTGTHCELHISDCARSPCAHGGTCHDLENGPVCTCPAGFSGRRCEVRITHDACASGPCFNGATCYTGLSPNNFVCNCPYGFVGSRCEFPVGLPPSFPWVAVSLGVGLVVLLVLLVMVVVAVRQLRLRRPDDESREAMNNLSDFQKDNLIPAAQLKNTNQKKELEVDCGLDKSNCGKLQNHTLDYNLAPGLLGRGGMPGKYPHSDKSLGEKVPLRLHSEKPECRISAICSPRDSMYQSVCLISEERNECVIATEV

[9] = target: T5, human DLL4, full length, overexpressed …; assay: cell-based or functional assay
[10] = target: T5, human DLL4, full length, overexpressed …; assay: FMAT, hNotch1-Fc on CHO-hDLL4, +25 uM HSA
[11] = target: T6, recombinant human VEGF165; assay: AlphaScreen, hVEGF165/hVEGFR1-Fc competition, -HSA
[12] = target: T6, recombinant human VEGF165; assay: AlphaScreen, hVEGF165/hVEGFR2-Fc competition, -HSA
[13] = target: T7, mouse DLL4, full length, overexpressed …; assay: FMAT, hNotch1-Fc on CHO-mDLL4, +25 uM HSA
[14] = target: T8, recombinant human DLL4 (C-terminally His-tagged extracellular domain, R&D Systems) (human, UniProt Q9NR61 25-522, biotinylated in the competition ELISA); assay: SPR (Biacore), recombinant human DLL4
T8 construct: also called rhDLL4; hDLL4
Protocol: Kinetic analysis to determine the affinity of the DII4-VHH interaction is performed by Surface Plasmon Resonance (SPR) on a Biacore T100 instrument. […] Purified VHHs or Fab fragment are injected for 2 minutes at different concentrations (between 10 and 300 nM) and allowed to dissociate for 20 min at a flow rate of 45 μl/min. Between sample injections, the surfaces are regenerated with 10 mM glycine pH1.5 and 100 mM HCl. HBS-N (Hepes buffer pH7.4) is used as running buffer. If possible, data are evaluated by fitting a 1:1 interaction model (Langmuir binding) onto the binding curves. The affinity constant KD is calculated from resulting association and dissociation rate constants (kₐ) and […].

[15] = target: T9, human DLL4 expressed on cells (CHO-hDLL4; HEK293-hDLL4) (human, UniProt Q9NR61 27-685); assay: competition FMAT, labelled hNotch1-Fc on CHO-hDLL4 cells
T9 construct: full length human DLL4 overexpressed on CHO cells (FMAT, FACS) or HEK293 cells (reporter assay)

[16] = target: T9, human DLL4 expressed on cells …; assay: cell-based or functional assay
[17] = target: T6, recombinant human VEGF165; assay: ProteOn off-rate assay, periplasmic extract on coated hVEGF165
Protocol: One additional variant is constructed in which the potential oxidation site at position M30 (CDR1 region, see FIG. 38 indicated as bold italic residue) is removed by introduction of a M30I mutation. […] Off-rates are calculated and compared to the off-rates of the parental VEGFBII5B05.

B1: VEGFBII025 (VHH)
chain: EVQLVESGGGLVQAGGSLRLSCAASGRTFSNYAMGWFRQAPGKERVLVADISSSGINTYVADAVKGRFTISRDNAKNTVYLQMNSLKPEDTAVYYCAASAWWYSQMARDNYRYWGQGTQVTVSSGGGGSGGGGSGGGGSGGGGSGGGGSGGGGSGGGGSGGGGSEVQLVESGGGLVQTGDSLRLSCEVSGRTFSSYSMGWFRQAQGKEREFVVAISKGGYKYDSVSLEGRFTISKDNAKNTVYLQINSLKPEDTAVYYCASSRAYGSSRLRLADTYEYWGQGTQVTVSS
notes: bivalent (heterodimeric) VHH; also called VEGFBII10E07-40GS-23B04
[1]
  binding result: no binding (tested: 5e-7 M)
[2]
  binding result: no binding (tested: about 5e-7 M)
[3]
  binding result: no binding (tested: about 5e-7 M)
[4]
  binding result: no binding (tested: 5e-7 M)

B2: VEGFBII024 (VHH)
chain: EVQLVESGGGLVQTGDSLRLSCEVSGRTFSSYSMGWFRQAQGKEREFVVAISKGGYKYDSVSLEGRFTISKDNAKNTVYLQINSLKPEDTAVYYCASSRAYGSSRLRLADTYEYWGQGTQVTVSSGGGGSGGGGSGGGGSGGGGSGGGGSGGGGSGGGGSGGGGSEVQLVESGGGLVQAGGSLRLSCTASGSAFKSYRMGWFRRTPGKEDEFVASISWTYGSTFYADSVKGRFTMSRDKAKNAGYLQMNSLKPEDTALYYCAAGAQSDRYNIRSYDYWGQGTQVTVSS
notes: bivalent (heterodimeric) VHH; also called VEGFBII23B04-40GS-86H09
[1]
  binding result: no binding (tested: 5e-7 M)
[2]
  binding result: no binding (tested: about 5e-7 M)
[3]
  binding result: no binding (tested: about 5e-7 M)
[4]
  binding result: no binding (tested: 5e-7 M)

B3: VEGFDLLBII014 (bispecific antibody)
chain: EVQLVESGGGLVQTGDSLRLSCEVSGRTFSSYSMGWFRQAQGKEREFVVAISKGGYKYDSVSLEGRFTISKDNAKNTVYLQINSLKPEDTAVYYCASSRAYGSSRLRLADTYEYWGQGTQVTVSSGGGGSGGGSEVQLVESGGGLVQPGGSLRLSCVASGIRFMSMAWYRQAPGKHRELVARISSGGTTAYVDSVKGRFTISRDNSKNTVYLQMNSLKAEDTAVYYCNTFSSRPNPWGAGTQVTVSSGGGGSGGGGSGGGGCGGGGSGGGGSGGGGSGGGGSEVQLVESGGGLVQAGGSLRLSCAASGRTFSSYAMAWYRQAPGKEREYVAAIRWSGGTAYYADSVQGRFTISRDNAKNTVYLQMNSLKPEDTAVYYCANRAPDTRLAPYEYDHWGQGTQVTVSS
modifications: PEGylated at the Cys at position 15 of the 35 Gly-Ser linker
notes: VEGFBII23B04 - 9GS - VEGFBII5B05 - 35GS(Cys15) - DLLBII129B05
[5]
  % inhibition, VEGF HUVEC proliferation assay, -HSA: 98%
  IC50, VEGF HUVEC proliferation assay, -HSA: 0.49 nM
[6]
  % inh: 100%
  IC50: 9.9 nM
[7]
  % inh: 100%
  IC50: 0.024 nM
[8]
  % inh: 100%
  IC50: 15.4 nM
[9]
  IC50, DLL4 mediated reporter assay, +HSA: 122 nM
[10]
  % inh: 100%
  IC50: 12.3 nM
[11]
  % inh: 94%
  IC50: 0.08 nM
[12]
  % inh: 100%
  IC50: 0.026 nM
[13]
  % inh: 100%
  IC50: 15.4 nM

B4: DLLBII017 (VHH, not shown: small tags and cut ends)
VHH: EVQLVESGGGLVQPGGSLRLSCAASGRTFSSYAMAWYRQAPGKEREYVAAIRWSGGTAYYADSVQGRFTISRDNAKNTVYLQMNSLRPEDTAVYYCANRAPDTRLAPYEYDHWGQGTLVTVSS
[14]
  Kd: 0.2 nM
  koff: 8e-05 s⁻¹
  kon: 370000 M⁻¹ s⁻¹
[15]
  IC50: 12.1 nM
[16]
  IC50, DLL4-mediated reporter assay (hDLL4): 126 nM

B5: VEGFDLLBII015 (bispecific antibody)
chain: EVQLVESGGGLVQTGDSLRLSCEVSGRTFSSYSMGWFRQAQGKEREFVVAISKGGYKYDSVSLEGRFTISKDNAKNTVYLQINSLKPEDTAVYYCASSRAYGSSRLRLADTYEYWGQGTQVTVSSGGGGSGGGGSGGGGCGGGGSGGGGSGGGGSGGGGSEVQLVESGGGLVQPGGSLRLSCVASGIRFMSMAWYRQAPGKHRELVARISSGGTTAYVDSVKGRFTISRDNSKNTVYLQMNSLKAEDTAVYYCNTFSSRPNPWGAGTQVTVSSGGGGSGGGGSGGGGSGGGGSGGGGSGGGGSGGGGSEVQLVESGGGLVQAGGSLRLSCAASGRTFSSYAMAWYRQAPGKEREYVAAIRWSGGTAYYADSVQGRFTISRDNAKNTVYLQMNSLKPEDTAVYYCANRAPDTRLAPYEYDHWGQGTQVTVSS
modifications: PEGylated at the Cys at position 15 of the 35 Gly-Ser linker
notes: VEGFBII23B04 - 35GS(Cys15) - VEGFBII5B05 - 35GS - DLLBII129B05
[5]
  % inhibition, VEGF HUVEC proliferation assay, -HSA: 109%
  IC50, VEGF HUVEC proliferation assay, -HSA: 0.49 nM
[6]
  % inh: 100%
  IC50: 9.5 nM
[7]
  % inh: 100%
  IC50: 0.015 nM
[8]
  % inh: 100%
  IC50: 12.2 nM
[9]
  IC50, DLL4 mediated reporter assay, +HSA: 134 nM
[10]
  % inh: 100%
  IC50: 10 nM
[11]
  % inh: 96%
  IC50: 0.04 nM
[12]
  % inh: 100%
  IC50: 0.016 nM
[13]
  % inh: 100%
  IC50: 11.2 nM

B6: VEGFBII119G11 (VHH)
VHH: EVQLVESGGGLVQPGGSLRLSCAASGIRFMSMAWYRQAPGKQRELVARISSGGTTAYADSVKGRFTISRDNSKNTVYLQMNSLRAEDTAVYYCNTFSSRPNPWGQGTLVTVSS
notes: Humanization variant of VEGFBII5B05; tested as periplasmic extract
[17]
  binding level (RU): 234 RU
  koff: 0.0775 s⁻¹

B7: VEGFBII120E10 (VHH)
VHH: B6 VHH with A23V, M30I, Q42H, A58V, R84K, Q105A, L108Q
notes: M30I variant of VEGFBII5B05; tested as periplasmic extract
[17]
  binding level (RU): 257 RU
  koff: 0.0468 s⁻¹

B8: VEGFBII021 (VHH)
chain: EVQLVESGGGLVQTGDSLRLSCEVSGRTFSSYSMGWFRQAQGKEREFVVAISKGGYKYDSVSLEGRFTISKDNAKNTVYLQINSLKPEDTAVYYCASSRAYGSSRLRLADTYEYWGQGTQVTVSSGGGGSGGGGSGGGGSGGGGSGGGGSGGGGSGGGGSGGGGSEVQLVESGGGLVQPGGSLRLSCVASGIRFMSMAWYRQAPGKHRELVARISSGGTTAYVDSVKGRFTISRDNSKNTVYLQMNSLKAEDTAVYYCNTFSSRPNPWGAGTQVTVSS
notes: bivalent (heterodimeric) VHH; also called VEGFBII23B04-40GS-5B05
[1]
  binding result: no binding (tested: 5e-7 M)
[2]
  binding result: no binding (tested: about 5e-7 M)
[3]
  binding result: no binding (tested: about 5e-7 M)
[4]
  binding result: no binding (tested: 5e-7 M)

From US20140120095A1 (Boehringer Ingelheim, published 2014)
